Measurements reported in the DeepSol protein solubility set.

Test: soluble on expression in E. coli; label from the status in PepcDB or PDB records

Soluble on expression in E. coli, soluble:
STHSELMEKFLTDYLNDLQGRNDDDASGTWDFYGSSVCEPDDESGYDVLANPPGPEDQDDDDDAYSDVFEFEFSETPLLPCYNIQVSVAQGPRNWLLLSDVLKKLKMSSRIFRCNFPNVEIVTIAEAEFYRQVSASLLFSCSKDLEAFNPESKELLDLVEFTNEIQTLLGSSVEWLHPSDLASDNYW
MGQDQTKKQIEKGLQLYQSNQTEKALQVWTKVLEKSSDLMGRFRVLGCLVTAHSEMGRYKEMLKFAVVQIDTARELEDADFLLESYLNLARSNEKLCEFHKTISYCKTCLGLPGTRAGAQLGGQVSLSMGNAFLGLSVFQKALESFEKALRYAHNNDDAMLECRVCCSLGSFYAQVKDYEKALFFPCKAAELVNNYGKGWSLKYRAMSQYHMAVAYRLLGRLGSAMECCEESMKIALQHGDRPLQALCLLCFADIHRSRGDLELSQLKLHCLSESIYRSKGLQRELRAHVVRFHECVEETELYCGLCGESIGEKNSRLQALPCSHIFHLRCLQNNGTRSCPNCRRSSMKPGFV
MSLTILNHTLGFPRVGLRRELKKAQESYWAGNSTREELLAVGRELRARHWDQQKQAGIDLLPVGDFAWYDHVLTTSLLLGNVPARHQNKDGSVDIDTLFRIGRGRAPTGEPAAAAEMTKWFNTNYHYMVPEFVKGQQFKLTWTQLLDEVDEALALGHKVKPVLLGPVTWLWLGKVKGEQFDRLSLLNDILPVYQQVLAELAKRGIEWVQIDEPALVLELPQAWLDAYKPAYDALQGQVKLLLTTYFEGVTPNLDTITALPVQGLHVDLVHGKDDVAELHKRLPSDWLLSAGLINGRNVWRADLTEKYAQIKDIVGKRDLWVASSCSLLHSPIDLSVETRLDAEVKSWFAFALQKCHELALLRDAVNSGDTAALAEWSAPIQARRHSTRVHNPAVEKRLAAITAQDSQRANVYEVRAEAQRARFKLPAWPTTTIGSFPQTTEIRTLRLDFKKGNLDANNYRTGIAEHIKQAIVEQERLGLDVLVHGEAERNDMVEYFGEHLDGFVFTQNGWVQSYGSRCVKPPIVIGDISRPAPITVEWAKYAQSLTDKPVKGMLTGPVTILCWSFPREDVSRETIAKQIALALRDEVADLEAAGIGIIQIDEPALREGLPLRRSDWDAYLQWGVEAFRINAAVAKDDTQIHTHMCYCEFNDIMDSIAALDADVITIETSRSDMELLESFEEFDYPNEIGPGVYDIHSPNVPSVEWIEALLKKAAKRIPAERLWVNPDCGLKTRGWPETRAALANMVQAAQNLRRGEGHHHHHH
AYMYRSAFSVGLETRVTVPNVPIRFTKIFYNQQNHYDGSTGKFYCNIPGLYYFSYHITVYMKDVKVSLFKKDKAVLFTYDQYQEKNVDQASGSVLLHLEVGDQVWLQVYGDGDHNGLYADNVNDSTFTGFLLYHDTN
MSLQVEFRECDPGNLWIWFEFAEPPVPAELEYLKEVLESWYVLGKLGGFNAERLVAQEAEVDLSYLEYPSDSAPLTSLMHNMGSLEEKGNWARCWFDLGTADALALDVLINALRTLSLEYINLSRVIIGGQNEDWPTPDPEETDVYDDLNGYLRDHWGEEGEGHHHHHH
MAQTERRDAPELPDFSLLKRLARDQLIFLLEQLPGKKDLFIDADLMSPLDRIANVTILKQHEVDKLYKVELKPIVSSSDQLCFLIRPRIQTVKWISDLVNSDKVAGRFRRYKIIFTPQKFYACETVLEEQGVYGDVTTDEWNFYILPLDDDILSLELPEFFRDNFLEGDQRWVTTGGGALHLLQSVYGSFSKVYGIGRCAKMVYESWRELMEEGEQRTRQPEFAKVFLIDRDVDFVTPLCSQVVYEGLVDDIFRIKCSSVEFGPDVTSSDKSIKVMLNSQDKVFNEIRNEHFSNVFGFLSQKAKNLQTAYDKRRGMDIQQMKAFVADELKGLKQEHRLLSLHIGASESIMKKKTKQDFQELLKTEHSLLEGFEIRECIAYIEEHINRQVSMIDSLRLLCLLSITENGLLSKDYRSLKAQYLQSYGIEHLLTFANLRQLGLLEEQQTGETLTVMESKVGKLVNDKTAGKLTDAFSSLAKKSNFRALSKRLALVPKSGEEYDLRVPRDMAYIFSGAYIPLSCKLIEQVLERDGWTGLEEVTRMLNGQDFAVTGGSSSSEARNKSNGQRIILVMFLGGCTYSEISALRFLGKERGCRFIVLTTAITNSGRLLEALLDKHV
MQDEVETEVIIKDIFKQGKICFIPQYQFQSNHMDMVRLTSPEEIALLPKTSWNIHQPGEGDVREEALSTGGLDLIFLPGLGFDKDGNRLGRGKGYYDTYLKRCVQHQEVKPYTMALAFKEQICPQIPVDEHDMKVDEVLYEDSPAS
MAHHHHHHMGTMGASNDVTDVDDENLLSEELQSSSTGSWSSMGDLQTTESAESDAPSEESDPDERVRRATASFLQWKNKEYVPLSLDEKRAIKEYRKMVAQEEGSYTSTRAQRQRDRAPKLFISREDDWVDLGSPAEGDGLARRRSRKIRFVAAVIASKEVDVHNDGLVVLTDAGEEVPELPRSASILRMSCVKNLTEEAPVFVDDLNSCMMEDEGRSCESAVRWEFPR
MSLREIVLINITGVDRPGLTAAITGVLAQGGVNILDIGQAVIHDTLSFGILVEIPDTVQGSSVLKDILFTAYKLDQQVRFTAVSEEGYQHWVEGQGKARHIVTLLTRKVTAEQLQCVSAITAKYGLNIDQIDRLSGRMPLDTPADKGKGCIEFTVRGEPADPKAMQAEFLAVAQELNVDIAFQQDSLFRRNRRLAVFDMDSTLIEAEVIDELAKAAGVGEQVAEITERAMRGELDFSESFKERLALLKGLDVGVLDEIGASLRLTEGAETLFSELKRLGYKTAILSGGFTYFAKQLQAKLGIDYVYANELEVVDGKVTGVAVEPIVNAQRKADLLRELAHKEGLSLEQTIAVGDGANDLPMLAIAGLGVAFRAKPLVKQSAKQAISTLGLDGVLYLLGEGHHHHHH

Soluble on expression in E. coli, not soluble:
MSLATLAELYEFLETKQDDSHLDSRFSYDAFLPVEQPKARLEILTWWKIERLIEDENCNFDKNFIVSYFDERVKATNNQLLKYRYNYFISLLTNDNRYAKQSIDALIAVINTLLPKDKEDYPHVAEKAIEVLMSLIKRVKYKIPEATDLIWGVLESDYGYRTKMVCIRLAKEKGFFPSRDAKKIVCLCKDLLSLVKDSWRENCCELGLFYSSKIQGEAKPYMNFFYEALGDMEMGQLVDPATAPNNIAIPWMNEDHSQKAMAFYQKAGLTQKRNRAELAFRENKKKMVMLHFKIEKKTDKKIVEYFGNLEKELLEGKLSWLLENLSCPVRFLFPSYEQIRLRMSASKSTVEKLGFENKIMDINGNSKDAGKDFDLRQKYGIWLMNIVRNTVINMILTAVNIKQLTYSKLRKWFLKNTCFGIQLEYTRSGQVVTTTWFSQIDYGVEALIKQYNRFLQGKPTDWRLPVDILSIRFEGILRDMVGDYGGCVTKVGRDNSISQALLDDLLREPCLLQIFRKEDIEFFEYVFTAKGYNIRNYVAHAFYIPQDYGMIEATLVFLCILRLTMFSPKSKTITANEGHHHHHH
PDVKFLEGRYCSVEHIDARKHLNDIIDFYWKNAVPSDWTYMFDQPFETAEAVQERLQDYEKSENPYFFAIRDKETDKVLGTFSLMRIDPKNRVLEMGRVIYAPALQKTSAATEAQYLVMNYVFENLGYRRYEWKCDHLNQSSGNAAKRLGFTYEGTFRKHVVYKGRTRDTDWFSVIDQDWPKLKKRFENWLSPKNF
AHQYGVKSYIGIPRSYSHDRTDFMQSEQAEILYYDGKYEETVEFIRDFSKDNGLYDASPGSANSSIDKMMYATIAFEIYEALLTVPSYVIVPVGNGTTLAGIYHGFRRMYDEGVIDHLPRMVGVSTSGGNPIVDSWRHGYSRVVDLNPEEIRETSINEPLVSYRSFDGQDALSAIRETHGRAMYVSDEEMVYYSNLIYSAEGLNPLPASASAVAAIGHLKVKQDETVVSVITGRQI
MTDYDSLDDNAFRLMVREWIAANYPQRIRNPPRRLGREETREWYLLLSRQGWLCPGWPREYGGMGLSAGKQLIMMEEMEEYGCARLPDSGVTMLGPLLIRYGDEAQRARFLPRILSGEDIWCQGYSEPNAGSDLASLRTEARLENGEWVINGQKTWTTMGSEANWIFLLVRTERSAKAQHGISFLLVPMDSLGIEVRPILNLELHGEFCEVFFNDVRVPYDSLVGEINQGWSMAKALLGFERIFLGSPKQSTFALQRLERLARHLGLWHDPLFARRFAALSMDLDSHKALYERFAERLRRGESLGPEVSMLKIFQSELFQRISELGLEIAGEDSALLQPFAEDPELHPAGIFIQSRPTTIYGGSNEIQRNILAKSVLGLPG
MGSDKIHHHHHHMQLLEFPNIAIIAGENAVPVAQLPLVWQDIAKGTANVGLCNPQIYVEMAQLFLYKLEQGDVDLFNERPELAHLKSSFCQLFGQLGRETLEFYGYDFMTHNYPNFEEILREVESKDADYGKVARIGLELFQEFGYELPASFYHVHLAPIYRDHVFEERALRFDKRDIEHKRSWDAILHAGKVFAVQMKVQSIASKYGFTYQHGCGCNSHLSSIDESRGTFAYELSQEKRDRWIRSFIWTAWYEYAFFPIVPNTSYLV
MNALTPLSARLERSDGHALVTLARSRGAVRLRDLAQRGSAKAFLPRVEGDVPEVVFLNTSGGLTGGDRLSYRLEVGEGCRATATTQTAERAYAAGAGAARVEVLHEVGRDGWLDWLPQETILFEGAALERETQISLAPGAGCLMVESVVLGRAAMGETLSRLAFRDRRSILRGGKPVVVEPLALDDRALAAAGGAAMLGGARALATLAMVGPGAEDALGPARAALGEAGVEAAASAFDGKLVLRLLAADGWPLRRQVARLLTVLRGRALPRVWQVLEHHHHHH
MARLARFWDSLENENLFDIVPQPPKSTVTRFHQQWLSSLANARDDELQTILYAKPLLPTPESIVQLPDEEYYGAKKISVGYR
MGSDKIHHHHHHMNSGGYMAIPPGAILPESLPEFKIFMRNREGKYVLWAADGNRVTVAQLAKLSESGVQDVFVDIEESFKYEQYLEANLGKILDNQGITVDRKAAIFSRVSTNVVKAAFETSLKSGAMGMETLQRTQKMIENAMKFITDSNSLPALAKMIGHDYETYEHAMKVTWWTVAFISENPEILTYCQKDEISDAEQISETLRSCGVCALLHDIGKAYVPQEVINKNGPLTEIEWEIMKRHPLSGLAMLLDSELPAFVKKAIVQHHEDFDGGGYPMNLEGTNITVLARVLRIMDVFDAMTSRRPYKDPLSPMKVIQIMIGTPSHPEDNAEPAQDPRDRGMGRCFDHELLGKFIIFIGNVKLD
MKINNGPVLCPHCGCLSAYYEIDRLAAIREKVNKEGGSAAWDSTLQAHKKKAFCLMCHKSIDEVVIGQSDAPESTK
VTSGTALPSADDLLVLLAVGRTGRFNTAADDLGVNHTTISRRIASLEKSLGGRVLVKAAGGWELTDLGRQALTAAERVEAAVHGLVAEPGRADHLKGVVRVSATDGFSAYIAAPAGALIRSRHPEVSVEIVAITRRASQHRSGLDIEIVVGKPQVHRAEALWLADYTLGLYGAKSYLSAHGTPRQVGDLADHSLVYFIDSMLQVDELDLARRLTVSMRESVTSTNVFVHVEATRASAGIGLLPCFMADRHDDLVRVLPGQVEATLAYWLVARPESLRRPEVAAVVGAIRETVESQRDALAGQ
MQTSIDPVFAGWDGSVAQARQLQQQLAQRVALRDEVSAAPALLAGFDVGFEDDGQTTRAAAVLLDAQTLLPLETHVARVPTSMPYVPGLLSFRELPALLRALALLARTPDLVFIDGQGIAHPRRFGIAAHFGVVTGLPSIGVAKQRLAGTFIEPGGERGDHSPILLAGAQIGWALRSKPRCNPLIVSPGHRVSMQGALDWTLRTLRAYRLPEPTRLADRLASRRGEIELQTQPTLLLEHHHHHH
